According to the supplement of paper PMC11316812:
± gives the standard deviation of the averaged measurements.

Columns and labels:
MCF7 = experiment: percentage of EdU-negative (G0-arrested) nuclei per well, 72 h; higher = more G0 arrest; settings: reference: sequence is the full UniProt precursor, the tested protein was the secreted form or ectodomain
hTERT-HMEC = experiment: as above; settings: reference: sequence is the full UniProt precursor, the tested protein was the secreted form or ectodomain
[1] = protein concentration 0.0225 µM
[2] = protein concentration 0.0357143 µM
[3] = protein concentration 0.357143 µM
[4] = protein concentration 0.0165 µM
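Note: secreted proteins added to cultured cells, EdU pulse at the end, nuclei found by Hoechst imaging, EdU status from nuclear versus surrounding ring intensity ratio, PBS as neutral control.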

| Sequence | percentage of EdU-negative (MCF7; [1]) [%] | percentage of EdU-negative (MCF7; protein concentration 0.225 µM) [%] | percentage of EdU-negative (hTERT-HMEC; [1]) [%] | percentage of EdU-negative (hTERT-HMEC; protein concentration 0.225 µM) [%] | other results |
| --- | --- | --- | --- | --- | --- |
| MSFPCKFVASFLLIFNVSSKGAVSKEITNALETWGALGQDINLDIPSFQMSDDIDDIKWEKTSDKKKIAQFRKEKETFKEKDTYKLFKNGTLKIKHLKTDDQDIYKVSIYDTKGKNVLEKIFDLKIQERVSKPKISWTCINTTLTCEVMNGTDPELNLYQDGKHLKLSQRVITHKWTTSLSAKFKCTAGNKVSKESSVEPVSCPEKGLDIYLIIGICGGGSLLMVFVALLVFYITKRKKQRSRRNDEELETRAHRVATEERGRKPHQIPASTPQNPATSQHPPPPPGHRSQAPSHRPPPPGHRVQHQPQKRPPAPSGTQVHQQKGPPLPRPRVQPKPPHGAAENSLSPSSN | 24.6 ± 0.84 | 26.8 ± 0.55 | 5.27 ± 1.3 | 5.92 ± 0.1 | – |
| MGLFRGFVFLLVLCLLHQSNTSFIKLNNNGFEDIVIVIDPSVPEDEKIIEQIEDMVTTASTYLFEATEKRFFFKNVSILIPENWKENPQYKRPKHENHKHADVIVAPPTLPGRDEPYTKQFTECGEKGEYIHFTPDLLLGKKQNEYGPPGKLFVHEWAHLRWGVFDEYNEDQPFYRAKSKKIEATRCSAGISGRNRVYKCQGGSCLSRACRIDSTTKLYGKDCQFFPDKVQTEKASIMFMQSIDSVVEFCNEKTHNQEAPSLQNIKCNFRSTWEVISNSEDFKNTIPMVTPPPPPVFSLLKISQRIVCLVLDKSGSMGGKDRLNRMNQAAKHFLLQTVENGSWVGMVHFDSTATIVNKLIQIKSSDERNTLMAGLPTYPLGGTSICSGIKYAFQVIGELHSQLDGSEVLLLTDGEDNTASSCIDEVKQSGAIVHFIALGRAADEAVIEMSKITGGSHFYVSDEAQNNGLIDAFGALTSGNTDLSQKSLQLESKGLTLNSNAWMNDTVIIDSTVGKDTFFLITWNSLPPSISLWDPSGTIMENFTVDATSKMAYLSIPGTAKVGTWAYNLQAKANPETLTITVTSRAANSSVPPITVNAKMNKDVNSFPSPMIVYAEILQGYVPVLGANVTAFIESQNGHTEVLELLDNGAGADSFKNDGVYSRYFTAYTENGRYSLKVRAHGGANTARLKLRPPLNRAAYIPGWVVNGEIEANPPRPEIDEDTQTTLEDFSRTASGGAFVVSQVPSLPLPDQYPPSQITDLDATVHEDKIILTWTAPGDNFDVGKVQRYIIRISASILDLRDSFDDALQVNTTDLSPKEANSKESFAFKPENISEENATHIFIAIKSIDKSNLTSKVSNIAQVTLFIPQANPDDIDPTPTPTPTPTPDKSHNSGVNISTLVLSVIGSVVIVNFILSTTI [Q14CN2] | 26.84 ± 0.26 | 30.6 ± 2 | 6.239 ± 0.015 | 66 ± 6.4 | – |
| MGPPPGAGVSCRGGCGFSRLLAWCFLLALSPQAPGSRGAEAVWTAYLNVSWRVPHTGVNRTVWELSEEGVYGQDSPLEPVAGVLVPPDGPGALNACNPHTNFTVPTVWGSTVQVSWLALIQRGGGCTFADKIHLAYERGASGAVIFNFPGTRNEVIPMSHPGAVDIVAIMIGNLKGTKILQSIQRGIQVTMVIEVGKKHGPWVNHYSIFFVSVSFFIITAATVGYFIFYSARRLRNARAQSRKQRQLKADAKKAIGRLQLRTLKQGDKEIGPDGDSCAVCIELYKPNDLVRILTCNHIFHKTCVDPWLLEHRTCPMCKCDILKALGIEVDVEDGSVSLQVPVSNEISNSASSHEEDNRSETASSGYASVQGTDEPPLEEHVQSTNESLQLVNHEANSVAVDVIPHVDNPTFEEDETPNQETAVREIKS [Q8TEB7] | – | – | – | – | percentage of EdU-negative (MCF7; [2]): 24.4 ± 1.5%; percentage of EdU-negative (MCF7; [3]): 31.5 ± 1.1%; percentage of EdU-negative (hTERT-HMEC; [2]): 4.65 ± 0.73%; percentage of EdU-negative (hTERT-HMEC; [3]): 10.2 ± 2.7% |
| MKTLLLLAVIMIFGLLQAHGNLVNFHRMIKLTTGKEAALSYGFYGCHCGVGGRGSPKDATDRCCVTHDCCYKRLEKRGCGTKFLSYKFSNSGSRITCAKQDSCRSQLCECDKAAATCFARNKTTYNKKYQYYSNKHCRGSTPRC | – | – | – | – | percentage of EdU-negative (MCF7; [4]): 25.3 ± 2.7%; percentage of EdU-negative (MCF7; protein concentration 0.165 µM): 29.2 ± 0.99%; percentage of EdU-negative (hTERT-HMEC; [4]): 4.75 ± 0.11%; percentage of EdU-negative (hTERT-HMEC; protein concentration 0.165 µM): 6.7 ± 0.9% |
| MAPISLSWLLRLATFCHLTVLLAGQHHGVTKCNITCSKMTSKIPVALLIHYQQNQASCGKRAIILETRQHRLFCADPKEQWVKDAMQHLDRQAAALTRNGGTFEKQIGEVKPRTTPAAGGMDESVVLEPEATGESSSLEPTPSSQEAQRALGTSPELPTGVTGSSGTRLPPTPKAQDGGPVGTELFRVPPVSTAATWQSSAPHQPGPSLWAEAKTSEAPSTQDPSTQASTASSPAPEENAPSEGQRVWGQGQSPRPENSLEREEMGPVPAHTDAFQDWGPGSMAHVSVVPVSSEGTPSREPVASGSWTPKAEEPIHATMDPQRLGVLITPVPDAQAATRRQAVGLLAFLGLLFCLGVAMFTYQSLQGCPRKMAGEMAEGLRYIPRSCGSNSYVLVPV | 24.7 ± 2.4 | 25.18 ± 0.043 | 4.91 ± 0.028 | 5.92 ± 0.33 | – |
| MGPISAPSCRWRIPWQGLLLTASLFTFWNPPTTAQLTIEAVPSNAAEGKEVLLLVHNLPQDPRGYNWYKGETVDANRRIIGYVISNQQITPGPAYSNRETIYPNASLLMRNVTRNDTGSYTLQVIKLNLMSEEVTGQFSVHPETPKPSISSNNSNPVEDKDAVAFTCEPETQNTTYLWWVNGQSLPVSPRLQLSNGNRTLTLLSVTRNDVGPYECEIQNPASANFSDPVTLNVLYGPDAPTISPSDTYYHAGVNLNLSCHAASNPPSQYSWSVNGTFQQYTQKLFIPNITTKNSGSYACHTTNSATGRNRTTVRMITVSDALVQGSSPGLSARATVSIMIGVLARVALI | 25.7 ± 1.8 | 27.4 ± 2.2 | 5.19 ± 1.8 | 9.55 ± 1.5 | – |
| MPMGSLQPLATLYLLGMLVASCLGRLSWYDPDFQARLTRSNSKCQGQLEVYLKDGWHMVCSQSWGRSSKQWEDPSQASKVCQRLNCGVPLSLGPFLVTYTPQSSIICYGQLGSFSNCSHSRNDMCHSLGLTCLEPQKTTPPTTRPPPTTTPEPTAPPRLQLVAQSGGQHCAGVVEFYSGSLGGTISYEAQDKTQDLENFLCNNLQCGSFLKHLPETEAGRAQDPGEPREHQPLPIQWKIQNSSCTSLEHCFRKIKPQKSGRVLALLCSGFQPKVQSRLVGGSSICEGTVEVRQGAQWAALCDSSSARSSLRWEEVCREQQCGSVNSYRVLDAGDPTSRGLFCPHQKLSQCHELWERNSYCKKVFVTCQDPNPAGLAAGTVASIILALVLLVVLLVVCGPLAYKKLVKKFRQKKQRQWIGPTGMNQNMSFHRNHTATVRSHAENPTASHVDNEYSQPPRNSHLSAYPALEGALHRSSMQPDNSSDSDYDLHGAQRL | 24.9 ± 1.4 | 26 ± 3.2 | 5.29 ± 0.99 | 5.13 ± 0.33 | – |
